This passage reports staining, fold over background results from patent US20120213844A1.

Positions of bridges follow the written chain, without caps; N, C: chain ends. No end group written: not given here. PEG = not defined here

The target in this experiment is human EGFR on tumor cells (human) (UniProt P00533). Kind of experiment: flow cytometry on A431 cells preincubated with 2 ug EGF, 2 uM bio-P190:avidin complex, 4 C. For orientation: A flow cytometer gives signals particle by particle.

Turning to DPCTWEVWGRECLQ-{PEG-biotin} (disulfide 3-12 (inferred); reading uncertain) [Biotinylated-PEGylated P190], the staining, fold over background was 20 fold.
